Laboratory results taken from PMC6793842.

Legend:
Test in all cases: SPR
[1] = molecular target: gorilla basigin, entire ectodomain; settings: read off a plot; for other: t1/2 (interaction half-life): parent: est. 1.9 s; for response (response units): plateau of the highest curve of four 2-fold serial dilutions (600 to 75 nM), parent: est. 92
[2] = molecular target: human basigin, entire ectodomain (human) (UniProt P35613)
[3] = molecular target: gorilla basigin, entire ectodomain (gorilla)
[4] = molecular target: chimpanzee basigin, entire ectodomain (chimpanzee)

Sequence of human basigin, entire ectodomain (human) (P35613 138-325): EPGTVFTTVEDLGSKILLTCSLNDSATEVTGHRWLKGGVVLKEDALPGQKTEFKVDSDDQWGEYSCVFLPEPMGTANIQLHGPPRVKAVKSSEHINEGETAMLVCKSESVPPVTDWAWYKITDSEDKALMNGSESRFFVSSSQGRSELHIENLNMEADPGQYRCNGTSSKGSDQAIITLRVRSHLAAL

Substance	other: t1/2 (interaction half-life) [1]	response (response units) [1]	Kd [2]	other results
introgressed ancestral RH5 (reticulocyte-binding protein homologue 5) (from UniProt Q8IFM5) Y197S	1.9 s	210		
introgressed ancestral RH5 (reticulocyte-binding protein homologue 5) (from UniProt Q8IFM5) Y203C	1.2 s	120		
P. gaboni RH5 (ligand)			3.6 µM	
introgressed ancestral RH5 (reticulocyte-binding protein homologue 5) (from UniProt Q8IFM5) H200Y		26		
introgressed ancestral RH5 (reticulocyte-binding protein homologue 5) (from UniProt Q8IFM5) D148H	2.5 s	190		
P. adleri RH5 (ligand)			3.1 µM	Kd [3]: 1 µM
introgressed ancestral RH5 (reticulocyte-binding protein homologue 5) (from UniProt Q8IFM5) R216T	2.3 s	130		
P. billcollinsi RH5 (ligand)				Kd [4]: 1.8 µM
introgressed ancestral RH5 (reticulocyte-binding protein homologue 5) (from UniProt Q8IFM5) Q219K	2.2 s	310		
P. praefalciparum RH5 (ligand)			1.9 µM	Kd [3]: 2.5 µM
